Values quoted from earlier work in publication PMC8239185.

Tests used:
[1] = target: Glu286 (UniProt position 286, FFGHPEVYIIV); assay: kinetics; details: enzyme during turnover
[2] = target: Glu212 (UniProt position 213, RTPDHEDTFFR); details: ground state of the reaction centre (quinones oxidised)

Substance: Cytochrome c oxidase (aa3, A-type), subunit I (Rhodobacter sphaeroides (Cereibacter sphaeroides))
- pKa [1]: ≈10

Substance: Photosynthetic reaction centre (bRC), L subunit (Rhodobacter sphaeroides (Cereibacter sphaeroides))
- pKa [2]: ≈10
